This passage reports stoichiometry N (monomers per oligomer) results from publication PMC5528828.

The target in this test is MAK33 VL S20N (murine). In words: negative-stain transmission electron microscopy; non-fibrillar oligomers; 50 uM monomer, 25 mM acetic acid, 25 mM phosphoric acid, 50 mM NaCl, pH 2, room temperature, quiescent; number of monomers estimated from the mean particle diameter.

On to MAK33 VL S20N (domain or fragment), for which the stoichiometry N (monomers per oligomer) is 30.
